In article PMC11014985, “TCTP regulates genotoxic stress and tumorigenicity via intercellular vesicular signaling” (EMBO Reports, 2024) one finds increase of the let-7c-5p signal bound to DDX-DQAD on adding TCTP (500 nM TCTP, 300 nM DDX3-DQAD, 50 nM biotinylated let-7c-5p, non-denaturing gel), in the presence of AMP-PNP and increase of the let-7c-5p signal bound to DDX-DQAD on adding TCTP (500 nM TCTP, 300 nM DDX3-DQAD, 50 nM biotinylated let-7c-5p, non-denaturing gel), in the presence of ATP data, which are given here for 1 molecule.

This test has as its target DDX3-DQAD (human) (UniProt O00571).

B1: TCTP (translationally controlled tumor protein) (natural protein)
chain: MIIYRDLISHDEMFSDIYKIREIADGLCLEVEGKMVSRTEGNIDDSLIGGNASAEGPEGEGTESTVITGVDIVMNHHLQETSFTKEAYKKYIKDYMKSIKGKLEEQRPERVKPFMTGAAEQIKHILANFKNYQFFIGENMNPDGMVALLDYREDGVTPYMIFFKDGLEMEKC
With B1, the increase of the let-7c-5p signal bound to DDX-DQAD on adding TCTP (500 nM TCTP, 300 nM DDX3-DQAD, 50 nM biotinylated let-7c-5p, non-denaturing gel), in the presence of AMP-PNP was determined as 200% and the increase of the let-7c-5p signal bound to DDX-DQAD on adding TCTP (500 nM TCTP, 300 nM DDX3-DQAD, 50 nM biotinylated let-7c-5p, non-denaturing gel), in the presence of ATP amounted to 50%.
